Measurements taken from US20220251236A1 (Boehringer Ingelheim, published 2022).

Experiments:
[1] = biological target: T1, trypsin inhibitor from glycine max soybean (Glycine max (soybean)); assay: SPR (Biacore T200), trypsin inhibitor on CM5 chip, sample at 1 µM
T1 construct: also called Tryp
Excerpt: To prepare the surface for the non-specific binding experiment, chicken egg white lysozyme and trypsin inhibitor from glycine max soybean were coupled manually to a series S CM5 chip with the surface density of 3000-5000 RU using the amine coupling kit according to the manufacture instructions.

[2] = biological target: T2, Human CD3 E+G HuFc-6xHis (human); assay: SPR (ProteOn XPR36), HuCD3E_HuCD3G-Fc amine-coupled, bispecific as analyte, Example 4B
T2 construct: also called hu CD3εγ-Fc
T2 sequence (chain, as listed by the source limits assumed): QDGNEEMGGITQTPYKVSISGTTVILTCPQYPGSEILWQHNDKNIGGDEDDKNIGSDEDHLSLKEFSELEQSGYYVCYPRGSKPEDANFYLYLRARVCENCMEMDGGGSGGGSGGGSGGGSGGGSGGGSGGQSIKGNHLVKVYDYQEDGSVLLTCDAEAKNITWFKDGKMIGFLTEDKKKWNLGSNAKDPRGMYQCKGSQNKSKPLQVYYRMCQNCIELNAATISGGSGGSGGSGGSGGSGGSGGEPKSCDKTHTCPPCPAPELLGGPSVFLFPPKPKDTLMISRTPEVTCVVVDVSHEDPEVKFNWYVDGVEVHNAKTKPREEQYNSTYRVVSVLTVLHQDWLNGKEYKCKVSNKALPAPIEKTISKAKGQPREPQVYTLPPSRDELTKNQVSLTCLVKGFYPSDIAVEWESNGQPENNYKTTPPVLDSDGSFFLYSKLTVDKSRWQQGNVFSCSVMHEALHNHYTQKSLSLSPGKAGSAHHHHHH
Experimental: (§1) The binding affinity of purified DLL3/CD3 bispecific constructs for recombinant human DLL3-ECD and Fc-fusion protein of human CD3 εγ subunits was determined by Surface Plasmon Resonance (SPR), using a ProteOn XPR36 instrument (Bio-Rad).
For binding kinetic determination to CD3, HuCD3E_HuCD3G-Fc (dissolved in pH 4.5 acetate) was immobilized directly onto the sensor surface through amine coupling for 360 sec at a flowrate of 30 μl/min vertically. The baseline was stabilized by injecting PBS-T-EDTA for 60 sec at a flowrate of 30 μl/min horizontally. The analytes (all anti-DLL3/CD3 molecules) were injected horizontally over the captured antibody for 600 sec at a flowrate of 30 μl/min and a dissociation for 1800 sec.

[3] = biological target: T3, Human DLL3-His (human, UniProt Q9NYJ7 27-492); assay: SPR (ProteOn XPR36), bispecific captured on protein A/G, hu DLL3 as analyte, Example 4B
T3 construct: also called huDLL3-His; hu DLL3
T3 sequence: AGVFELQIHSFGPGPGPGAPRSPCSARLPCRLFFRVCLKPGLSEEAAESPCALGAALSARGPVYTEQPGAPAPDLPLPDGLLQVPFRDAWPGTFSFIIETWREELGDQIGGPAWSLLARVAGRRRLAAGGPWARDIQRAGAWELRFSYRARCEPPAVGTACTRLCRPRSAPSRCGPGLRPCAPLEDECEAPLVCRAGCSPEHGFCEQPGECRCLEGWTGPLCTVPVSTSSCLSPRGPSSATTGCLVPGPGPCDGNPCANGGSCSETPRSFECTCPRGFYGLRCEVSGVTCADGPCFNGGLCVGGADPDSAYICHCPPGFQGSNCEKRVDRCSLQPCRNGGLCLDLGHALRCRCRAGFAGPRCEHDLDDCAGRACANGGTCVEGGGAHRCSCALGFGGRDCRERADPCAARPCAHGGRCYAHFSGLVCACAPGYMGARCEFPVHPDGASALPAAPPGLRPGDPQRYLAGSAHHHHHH
Experimental: as §1
For binding kinetic determination to DLL3, anti-DLL3/CD3 molecules were captured individually on the protein A/G surface vertically for 200 sec at a flowrate of 30 μl/min. The baseline was stabilized by injecting PBS-T-EDTA for 60 sec at a flowrate of 30 μl/min horizontally. The analyte (hu DLL3) was injected horizontally over the captured antibody for 300 sec at a flowrate of 30 μl/min and a dissociation for 1800 sec.

[4] = biological target: T4, EGF1+2; assay: flow cytometry on HEK293 cells expressing the DLL3 subdomain construct, PE anti-human secondary, control: secondary antibody only
T4 construct: also called Hu DLL3 EGF1+2 on HEK293 cells
T4 membrane-anchored DLL3 subdomain construct: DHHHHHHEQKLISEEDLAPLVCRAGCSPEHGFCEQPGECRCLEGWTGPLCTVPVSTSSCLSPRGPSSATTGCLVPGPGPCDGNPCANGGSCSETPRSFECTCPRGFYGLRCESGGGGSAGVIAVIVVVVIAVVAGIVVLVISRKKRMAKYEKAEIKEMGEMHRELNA
Experimental: (§2) DLL3/CD3 binding proteins were produced by transient transfection of CHO-E cells with the pTT5 vectors carrying the chain-encoding genes, as described in Example 2. […] Bound molecules were detected with PE-conjugated anti-human secondary antibody (Sigma-Aldrich, #P8047). As negative control, cells were incubated with secondary antibody only.
(§3) The samples were measured by flow-cytometry. […] The sequences of the epitope domains are listed in Example 5, Table 3.

[5] = biological target: T5, EGF2+3; assay: as above
T5 construct: also called Hu DLL3 EGF2+3 on HEK293 cells
T5 membrane-anchored DLL3 subdomain construct: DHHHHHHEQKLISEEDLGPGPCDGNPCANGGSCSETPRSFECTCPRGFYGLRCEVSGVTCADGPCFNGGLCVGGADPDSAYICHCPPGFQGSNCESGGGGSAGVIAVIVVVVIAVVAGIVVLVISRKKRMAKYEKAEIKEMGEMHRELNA
Experimental: as §2, §3

[6] = biological target: T6, EGF3+4; assay: as above
T6 construct: also called Hu DLL3 EGF3+4 on HEK293 cells
T6 membrane-anchored DLL3 subdomain construct: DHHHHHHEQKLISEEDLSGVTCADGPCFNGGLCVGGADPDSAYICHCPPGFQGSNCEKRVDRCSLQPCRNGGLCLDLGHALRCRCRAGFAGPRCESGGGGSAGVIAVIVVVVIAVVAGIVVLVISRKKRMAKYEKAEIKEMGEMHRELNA
Experimental: as §2, §3

[7] = biological target: T7, EGF4+5; assay: as above
T7 construct: also called Hu DLL3 EGF4+5 on HEK293 cells
T7 membrane-anchored DLL3 subdomain construct: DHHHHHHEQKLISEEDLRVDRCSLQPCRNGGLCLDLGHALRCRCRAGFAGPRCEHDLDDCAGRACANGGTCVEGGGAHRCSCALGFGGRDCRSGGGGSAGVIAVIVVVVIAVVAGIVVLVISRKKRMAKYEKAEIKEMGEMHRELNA
Experimental: as §2, §3

[8] = biological target: T8, EGF5+6; assay: as above
T8 construct: also called Hu DLL3 EGF5+6 on HEK293 cells
T8 membrane-anchored DLL3 subdomain construct: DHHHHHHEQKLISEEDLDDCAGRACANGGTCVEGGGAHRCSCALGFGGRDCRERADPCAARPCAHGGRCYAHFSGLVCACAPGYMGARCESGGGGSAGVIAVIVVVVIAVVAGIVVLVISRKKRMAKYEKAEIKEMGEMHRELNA
Experimental: as §2, §3

[9] = biological target: T9, EGF6+MEMBRANE PROXIMAL PEPTIDE; assay: as above
T9 construct: also called Hu DLL3 EGF6+membrane proximal peptide on HEK293 cells
T9 membrane-anchored DLL3 subdomain construct: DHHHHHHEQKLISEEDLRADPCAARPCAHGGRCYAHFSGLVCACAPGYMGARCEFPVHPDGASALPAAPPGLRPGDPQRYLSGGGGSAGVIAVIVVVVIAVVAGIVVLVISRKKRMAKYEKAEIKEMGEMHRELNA
Experimental: as §2, §3

T1 sequence (P01070 25-205): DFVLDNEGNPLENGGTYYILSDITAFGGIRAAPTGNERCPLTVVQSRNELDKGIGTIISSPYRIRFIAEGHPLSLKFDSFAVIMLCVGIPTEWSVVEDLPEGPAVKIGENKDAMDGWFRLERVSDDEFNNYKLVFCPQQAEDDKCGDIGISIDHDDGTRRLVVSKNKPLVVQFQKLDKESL

B1: DLL3#16/CD3#1 (bispecific antibody, human IgG1, kappa, lambda, L234A L235A)
chain 1: DIQMTQSPSTLSASVGDRVTITCRASQSVSDWLAWYQQKPGKAPKFLIYRASSLESGVPSRFSGSGSGTEFTLTISSLQPADFATYYCQLYNSYSPTFGQGTKVEIKRTVAAPSVFIFPPSDEQLKSGTASVVCLLNNFYPREAKVQWKVDNALQSGNSQESVTEQDSKDSTYSLSSTLTLSKADYEKHKVYACEVTHQGLSSPVTKSFNRGECGGGGSEGKSSGSGSESKSTEGKSSGSGSESKSTGGGGSEVHLVESGGGLVQPGGSLRLSCAASGFTFSSYWMTWVRQAPGKGLEWVANIKEDGSEKYYVDSVKGRFTISRDNAKNSLYLQMNSLRAEDTALYYCARDWGYFDYWGQGTLVTVSSASTKGPSVFPLAPSSKSTSGGTAALGCLVKDYFPEPVTVSWNSGALTSGVHTFPAVLQSSGLYSLSSVVTVPSSSLGTQTYICNVNHKPSNTKVDKRVEPKSCDKTHTCPPCPAPEAAGGPSVFLFPPKPKDTLMISRTPEVTCVVVDVSHEDPEVKFNWYVDGVEVHNAKTKPREEQYNSTYRVVSVLTVLHQDWLNGKEYKCKVSNKALPAPIEKTISKAKGQPREPQVYTLPPSREEMTKNQVSLWCLVKGFYPSDIAVEWESNGQPENNYKTTPPVLDSDGSFFLYSKLTVDKSRWQQGNVFSCSVMHEALHNHYTQKSLSLSPG
chain 2: EAVVTQEPSLTVSPGGTVTLTCRSSTGAVTTSNYANWVQEKPGQLPRGLIGGTNKRAPWVPARFSGSLLGGKAALTLSGAQPEDEAEYFCALWYSNLWVFGGGTKLTVLGQPKAAPSVTLFPPSSEELQANKATLVCLISDFYPGAVKVAWKADGSPVNTGVETTTPSKQSNNKYAASSYLSLTPEQWKSHRSYSCQVTHEGSTVEKTVAPAECSGGGGSEGKSSGSGSESKSTEGKSSGSGSESKSTGGGGSEVQLVESGGGLVQPGGSLKLSCAASGFTFNTYAMNWVRQAPGKGLEWVARIRSKYNNYATYYADSVKDRFTISRDDSKNTAYLQMNNLKTEDTAVYYCVRHGNFGNSYVSWFAYWGQGTLVTVSAASTKGPSVFPLAPSSKSTSGGTAALGCLVKDYFPEPVTVSWNSGALTSGVHTFPAVLQSSGLYSLSSVVTVPSSSLGTQTYICNVNHKPSNTKVDKRVEPKSCDKTHTCPPCPAPEAAGGPSVFLFPPKPKDTLMISRTPEVTCVVVDVSHEDPEVKFNWYVDGVEVHNAKTKPREEQYNSTYRVVSVLTVLHQDWLNGKEYKCKVSNKALPAPIEKTISKAKGQPREPQVYTLPPSREEMTKNQVSLSCAVKGFYPSDIAVEWESNGQPENNYKTTPPVLDSDGSFFLVSKLTVDKSRWQQGNVFSCSVMHEALHNRFTQKSLSLSPG
notes: Heterodimer of one DLL3 chain and one CD3 chain (scFab-Fc, knob-in-hole)
- Non-specific binding (RU) [1]: 0 RU
- Kd [2]: 2 nM
- Kd [3]: 0.228 nM
- binding result [4]: no binding (tested: 1.6 nM)
- binding result [5]: no binding (tested: 1.6 nM)
- binding result [6]: no binding (tested: 1.6 nM)
- binding result [7]: no binding (tested: 1.6 nM)
- binding result [8]: no binding (tested: 1.6 nM)
- binding result [9]: no binding (tested: 1.6 nM)
